# B1: N-terminal domain of clathrin (domain or fragment)
# chain: MAQILPIRFQEHLQLQNLGINPANIGFSTLTMESDKFICIREKVGEQAQVVIIDMNDPSNPIRRPISADSAIMNPASKVIALKAGKTLQIFNIEMKSKMKAHTMTDDVTFWKWISLNTVALVTDNAVYHWSMEGESQPVKMFDRHSSLAGCQIINYRTDAKQKWLLLTGISAQQNRVVGAMQLYSVDRKVSQPIEGHAASFAQFKMEGNAEESTLFCFAVRGQAGGKLHIIEVGTPPTGNQPFPKKAVDVFFPPEAQNDFPVAMQISEKHDVVFLITKYGYIHLYDLETGTCIYMNRISGETIFVTAPHEATAGIIGVNRKGQVLSVCVEEENIIPYITNVLQNPDLALRMAVRNNLAGAEELF
# Experiments:
# Assay in all cases: FP
# [1] = molecular target: NP (ZEBOV) peptide with the 466-YGEY-469 stretch (Zaire ebolavirus, UniProt P18272)
# [2] = molecular target: SYNRG 664-679 (Human)
# [3] = molecular target: T1, C terminal domain of polyadenylate-binding protein 1 (human, UniProt P11940 544-623)
# T1 chain: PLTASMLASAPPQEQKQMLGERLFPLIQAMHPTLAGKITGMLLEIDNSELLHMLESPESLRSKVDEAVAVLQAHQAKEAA
# [4] = molecular target: Nsp3_(1765-1780) (EEEV) peptide (Eastern equine encephalitis virus)
# [5] = molecular target: RdRp 1840-1855 (SVV)
# [6] = molecular target: ARRB2 367-382 (Human)
# [7] = molecular target: AP1B1 626-641 (Human)
# [8] = molecular target: M 26-41 (RABV)
# [9] = molecular target: T2, programmed cell death 6-interacting protein (ALIX) V domain (human)
# T2 chain: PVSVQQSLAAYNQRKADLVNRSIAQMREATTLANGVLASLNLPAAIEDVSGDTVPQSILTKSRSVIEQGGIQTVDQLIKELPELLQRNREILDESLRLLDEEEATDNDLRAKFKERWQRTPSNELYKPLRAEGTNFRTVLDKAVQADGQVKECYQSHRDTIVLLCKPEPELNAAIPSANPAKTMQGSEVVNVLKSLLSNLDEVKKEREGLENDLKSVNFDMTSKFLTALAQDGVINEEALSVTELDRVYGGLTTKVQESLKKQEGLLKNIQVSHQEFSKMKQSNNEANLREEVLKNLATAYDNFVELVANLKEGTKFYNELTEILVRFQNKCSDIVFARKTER
# [10] = molecular target: TSG101 binding peptide from ALIX (PDC6IP) (human, UniProt Q8WUM4)
# [11] = molecular target: VP40 1-20 (SEBOV)
# [12] = molecular target: EGFR 992-1007 (Human)
# [13] = molecular target: NP (ZEBOV) peptide with the 340-YQQL-343 sequence (Zaire ebolavirus, UniProt P18272)
# [14] = molecular target: L (OLVV)
# [15] = molecular target: Nsp4 75-90 (BAV)
# [16] = molecular target: ACP2 407-422 (Human)
# [17] = molecular target: Reston ebolavirus (REBOV) nucleoprotein (NP) peptide (Reston ebolavirus)
# [18] = molecular target: CEP55 binding peptide from TEX1 (human, UniProt Q8IWB6)
# [19] = molecular target: CEP55 binding peptide from ALIX (human, UniProt Q8WUM4)
# [20] = molecular target: Rabies virus (RABV) protein P peptide (Rabies virus)
# [21] = molecular target: B1
binder,measurement,setting,value
GAE domain of the ADP-ribosylation factor-binding protein GGA3 (domain or fragment) SSALPVTAYDKNGFRILFHFAKECPPGRPDVLVVVVSMLNTAPLPVKSIVLQAAVPKSMKVKLQPPSGTELSPFSPIQPPAAITQVMLLANPLKEKVRLRYKLTFALGEQLSTEVGEVDQFP,Kd,[1],10 µM
same,Kd,[2],11 µM
HPLLNPSALEFNPSQT [N_(351-366) (HCoV 229E) peptide],Kd,[3],23 µM
B1,Kd,[4],27 µM
same,Kd,[5],~800 µM
same,Kd,[6],39 µM
same,Kd,[7],280 µM
VHS domain of the ADP-ribosylation factor-binding protein GGA3 (domain or fragment) ATNPSNRQEDWEYIIGFCDQINKELEGPQIAVRLLAHKIQSPQEWEALQALTVLEACMKNCGRRFHNEVGKFRFLNELIKVVSPKYLGDRVSEKVKTKVIELLYSWTMALPEEAKIKDAYHMLKRQGIVQS,Kd,[8],150 µM
MSKLSVNAPEFYPSGY [PABP-interacting protein 1 peptide PAIP1_(125-140)],Kd,[3],1.6 µM
TTGLNPTAVPFTLRNL [P/V/C_(183-198) (NiV) peptide],Kd,[3],15 µM
VDEEKGLYPNLKLTEPTAPMIHNYM [Nsp4_(118-142) (BAV) peptide],Kd,[9],160 µM
tumor susceptibility gene 101 protein UEV domain (domain or fragment) AVSESQLKKMVSKYKYRDLTVRETVNVITLYKDLKPVLDSYVFNDGSSRELMNLTGTIPVPYRGNTYNIPICLWLLDTYPYNPPICFVKPTSSMTIKTGKHVDANGKIYLPYLHEWKHPQSDLLGLIQVMIVVFGDEPPVFSRP,Kd,[10],150 µM
same,Kd,[11],12 µM
SAGLNPAAVPFVPKNQ [P/V/C_(183-198) (HeV) peptide],Kd,[3],2 µM
Mu homology domain (MHD) of the AP-2 subunit mu (domain or fragment) RNELFLDVLESVNLLMSPQGQVLSAHVSGRVVMKSYLSGMPECKFGMNDKIVIEKQGKGTADETSKSGKQSIAIDDCTFHQCVRLSKFDSERSISFIPPDGEFELMRYRTTKDIILPFRVIPLVREVGRTKLEVKVVIKSNFKPSLLAQKIEVRIPTPLNTSGVQVICMKGKAKYKASENAIVWKIKRMAGMKESQISAEIELLPTNDKKKWARPPISMNFEVPFAPSGLKVRYLKVFEPKLNYSDHDVIKWVRYIGRSGIYETR,Kd,[12],2.4 µM
same,Kd,[13],9.5 µM
same,Kd,[14],11 µM
same,Kd,[15],16 µM
same,Kd,[16],220 µM
KSNLNPNAKEFVPGVK [PABP-interacting protein 2 peptide PAIP2_(108-123)],Kd,[3],0.16 µM
centrosomal protein of 55 kDa EABR domain (domain or fragment) FNSSINNIHEMEIQLKDALEKNQQWLVYDQQREVYVKGLLAKIFELEKKTETAAH,Kd,[17],2.2 µM
same,Kd,[18],~0.3 µM
same,Kd,[19],~0.3 µM
same,Kd,[20],22 µM
NSMLNPNAVPFQPSPQ [N_(2-17) (BeV) peptide],Kd,[3],2.7 µM
VDGAADLIDFSVPTDE [mu-NS_(705-720) (MRV1) peptide],Kd,[21],32 µM

# Reference: publication PMC10132805 (2023)
